Test [1] deals with SARS-CoV-2 receptor-binding domain (WT RBD; S protein residues 319-539) (SARS-CoV-2) (UniProt P0DTC2). Nature of the test: BLI (Octet Red), IgG on protein A biosensor, WT RBD in solution, 1:1 fit. (In general: Biolayer interferometry detects binding as a change in optical thickness at a sensor tip.)
Test [2] addresses SARS-COV-2 RBD (SARS-COV-2) (UniProt P0DTC2). Put plainly: ELISA, RBD coated.

The Kd is a measure of binding affinity in units of concentration. High values mean weaker binding, low ones tighter binding. The EC50 is the concentration at which the effect is half-maximal. Low values mean greater potency, high ones weaker potency. Regarding C144 (antibody), in test [1], the Kd is 714 nM. Further, the EC50 in test [2] was determined as 1.83 ng/mL.

Values taken from patent US20240218057A1.
